Test results: patent US20250270314A1 (TAVOTEK BIOTECH SUZHOU, published 2025)

T1: human CDH17 on AGS gastric cancer cells and AsPC-1 pancreatic cancer cells (human, UniProt Q12864 23-832)
T1 construct: Native CDH17 on the surface of cancer cell lines; also called CDH17 expressing AGS cells; CDH17 expressing AsPC-1 pancreatic cancer cells
T1 sequence: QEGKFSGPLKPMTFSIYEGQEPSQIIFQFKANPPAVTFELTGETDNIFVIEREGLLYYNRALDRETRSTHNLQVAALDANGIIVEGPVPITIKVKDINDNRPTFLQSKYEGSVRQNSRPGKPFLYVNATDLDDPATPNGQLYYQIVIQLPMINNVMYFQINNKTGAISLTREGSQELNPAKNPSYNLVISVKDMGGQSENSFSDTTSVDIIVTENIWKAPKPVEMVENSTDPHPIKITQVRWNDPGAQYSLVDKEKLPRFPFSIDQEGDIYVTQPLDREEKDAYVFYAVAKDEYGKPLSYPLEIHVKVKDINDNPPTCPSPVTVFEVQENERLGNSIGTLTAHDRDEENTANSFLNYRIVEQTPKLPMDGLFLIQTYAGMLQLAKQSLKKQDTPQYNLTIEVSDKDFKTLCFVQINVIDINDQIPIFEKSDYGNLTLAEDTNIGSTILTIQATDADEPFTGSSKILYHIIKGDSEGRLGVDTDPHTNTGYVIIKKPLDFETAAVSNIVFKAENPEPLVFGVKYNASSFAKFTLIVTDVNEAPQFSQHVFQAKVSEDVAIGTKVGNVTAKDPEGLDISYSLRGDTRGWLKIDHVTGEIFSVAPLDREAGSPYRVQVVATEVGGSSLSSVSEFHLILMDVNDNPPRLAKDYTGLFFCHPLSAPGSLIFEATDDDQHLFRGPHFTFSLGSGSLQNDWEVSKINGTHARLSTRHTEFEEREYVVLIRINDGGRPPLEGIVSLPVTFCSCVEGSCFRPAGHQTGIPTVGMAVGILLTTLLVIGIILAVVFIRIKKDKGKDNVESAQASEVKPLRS

T2: recombinant human CDH17 (R&D systems) (human, UniProt Q12864 23-787)
T2 construct: Bought recombinant protein coated on the ELISA plate; also called human Cadherin-17
T2 sequence: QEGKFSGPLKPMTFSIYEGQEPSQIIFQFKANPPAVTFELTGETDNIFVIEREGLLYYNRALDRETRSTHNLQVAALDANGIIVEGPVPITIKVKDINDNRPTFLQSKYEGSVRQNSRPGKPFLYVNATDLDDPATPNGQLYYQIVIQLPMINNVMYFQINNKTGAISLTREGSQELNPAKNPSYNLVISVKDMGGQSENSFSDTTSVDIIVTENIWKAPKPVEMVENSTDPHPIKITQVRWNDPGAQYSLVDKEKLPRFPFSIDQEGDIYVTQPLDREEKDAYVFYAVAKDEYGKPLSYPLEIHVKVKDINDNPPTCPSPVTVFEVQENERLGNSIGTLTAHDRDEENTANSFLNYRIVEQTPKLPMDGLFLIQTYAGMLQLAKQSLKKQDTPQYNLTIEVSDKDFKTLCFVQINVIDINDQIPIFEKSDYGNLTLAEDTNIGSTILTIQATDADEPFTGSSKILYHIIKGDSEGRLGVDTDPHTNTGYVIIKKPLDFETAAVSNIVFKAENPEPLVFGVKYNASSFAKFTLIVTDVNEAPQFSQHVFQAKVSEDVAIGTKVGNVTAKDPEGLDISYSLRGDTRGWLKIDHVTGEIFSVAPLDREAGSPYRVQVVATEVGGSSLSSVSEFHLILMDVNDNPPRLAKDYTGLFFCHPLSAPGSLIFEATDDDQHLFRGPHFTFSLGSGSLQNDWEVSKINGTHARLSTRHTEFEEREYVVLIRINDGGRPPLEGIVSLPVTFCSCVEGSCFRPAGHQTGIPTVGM


Each binder was assayed against T1, human CDH17 on AGS gastric cancer cells … (assay: flow cytometry on AGS and AsPC-1 cells).

Binder | binding result
VHO v355 (VHH, Variable-heavy-only (VHO) single domain; also called TS00355) VHH: EVQLLESGGGLVQPGGSLRLSCAASGFTFSDYWMSWVRQAPGKGLEWVSAISGDGSSTYYADSVKGRFTISRDNSKNTLYLQMNSLRAEDTAVYYCAKETWGTYDFDYWGQGTLVTVSS | binds
VHO v343 (VHH, Variable-heavy-only (VHO) single domain; also called TS00343) VHH: EVQLLESGGGLVQPGGSLRLSCAASGFTFSDYWMSWVRQAPGKGLEWVSAIKGDGSSTYYADSVKGRFTISRDNSKNTLYLQMNSLRAEDTAVYYCAKEEWRPYSFDYWGQGTLVTVSS | binds
VHO v345 (VHH, Variable-heavy-only (VHO) single domain; also called TS00345) VHH: EVQLLESGGGLVQPGGSLRLSCAASGFTFSNYWMSWVRQAPGKGLEWVSAIKQDGSSTYYADSVKGRFTISRDNSKNTLYLQMNSLRAEDTAVYYCAKEEWRDYDFDYWGQGTLVTVSS | binds
VHO v376 (VHH, Variable-heavy-only (VHO) single domain; also called TS00376) VHH: EVQLLESGGGLVQPGGSLRLSCAASGFTFSDYWMSWVRQAPGKGLEWVSGINSSGGSTYYADSVKGRFTISRDNSKNTLYLQMNSLRAEDTAVYYCAKWQFVTQPGHKAFDYWGQGTLVTVSS | binds
VHO v380 (VHH, Variable-heavy-only (VHO) single domain; also called TS00380) VHH: EVQLLESGGGLVQPGGSLRLSCAASGFTFSNYWMSWVRQAPGKGLEWVSGISQSGSSTYYADSVKGRFTISRDNSKNTLYLQMNSLRAEDTAVYYCAKWQFASWRGDKDFDYWGQGTLVTVSS | binds
VHO v362 (VHH, Variable-heavy-only (VHO) single domain; also called TS00362) VHH: EVQLLESGGGLVQPGGSLRLSCAASGFTFSDYWMSWVRQAPGKGLEWVSNISSDGGSTYYADSVKGRFTISRDNSKNTLYLQMNSLRAEDTAVYYCAKTTTWLLSQHDKTSFDYWGQGTLVTVSS | binds
VHO v372 (VHH, Variable-heavy-only (VHO) single domain; also called TS00372) VHH: EVQLLESGGGLVQPGGSLRLSCAASGFTFSSYWMSWVRQAPGKGLEWVSGINYSGSSTYYADSVKGRFTISRDNSKNTLYLQMNSLRAEDTAVYYCAKWSWLGSDKADFDYWGQGTLVTVSS | binds
VHO v371 (VHH, Variable-heavy-only (VHO) single domain; also called TS00371) VHH: EVQLLESGGGLVQPGGSLRLSCAASGFTFSNYWMSWVRQAPGKGLEWVSGINGSGGSTYYADSVKGRFTISRDNSKNTLYLQMNSLRAEDTAVYYCAKWHWYGQEKKAFDYWGQGTLVTVSS | binds
VHO v357 (VHH, Variable-heavy-only (VHO) single domain; also called TS00357) VHH: EVQLLESGGGLVQPGGSLRLSCAASGFTFSDYWMSWVRQAPGKGLEWVSNISSSGSSTYYADSVKGRFTISRDNSKNTLYLQMNSLRAEDTAVYYCAKTSDWLSGKIDEHFDYWGQGTLVTVSS | binds
VHO v342 (VHH, Variable-heavy-only (VHO) single domain; also called TS00342) VHH: EVQLLESGGGLVQPGGSLRLSCAASGFTFSDYWMSWVRQAPGKGLEWVSNISQSGGSTYYADSVKGRFTISRDNSKNTLYLQMNSLRAEDTAVYYCAKDTPGPRWDFDYWGQGTLVTVSS | binds
VHO v346 (VHH, Variable-heavy-only (VHO) single domain; also called TS00346) VHH: EVQLLESGGGLVQPGGSLRLSCAASGFTFSDYWMSWVRQAPGKGLEWVSAIKQDGGSTYYADSVKGRFTISRDNSKNTLYLQMNSLRAEDTAVYYCAKETWEAHWDFDYWGQGTLVTVSS | binds
VHO v347 (VHH, Variable-heavy-only (VHO) single domain; also called TS00347) VHH: EVQLLESGGGLVQPGGSLRLSCAASGFTFSTYAMSWVRQAPGKGLEWVSNISGSGGSTYYADSVKGRFTISRDNSKNTLYLQMNSLRAEDTAVYYCAKEQQWVPGFGFDYWGQGTLVTVSS | binds

Other lines, results leading:

binding result | Binder
binds | VHO v349 (VHH, Variable-heavy-only (VHO) single domain; also called TS00349) VHH: EVQLLESGGGLVQPGGSLRLSCAASGFTFSDYWMHWVRQAPGKGLEWVSAIWSSGGSTYYADSVKGRFTISRDNSKNTLYLQMNSLRAEDTAVYYCAKSPTLYDDFDYWGQGTLVTVSS
binds | VHO v352 (VHH, Variable-heavy-only (VHO) single domain; also called TS00352) VHH: EVQLLESGGGLVQPGGSLRLSCAASGFTFSSYWMHWVRQAPGKGLEWVSAIWSSGGSTYYADSVKGRFTISRDNSKNTLYLQMNSLRAEDTAVYYCAKSKSLHEDFDYWGQGTLVTVSS
binds | VHO v374 (VHH, VHO single domain; also called TS00374) VHH: EVQLLESGGGLVQPGGSLRLSCAASGFTFSTYWMSWVRQAPGKGLEWVSGINQDGSSTYYADSVKGRFTISRDNSKNTLYLQMNSLRAEDTAVYYCAKWHWAGSSQQFDYWGQGTLVTVSS
binds | VHO v370 (VHH, Variable-heavy-only (VHO) single domain; also called TS00370) VHH: EVQLLESGGGLVQPGGSLRLSCAASGFTFSNYWMSWVRQAPGKGLEWVSNISSDGGSTYYADSVKGRFTISRDNSKNTLYLQMNSLRAEDTAVYYCAKTTTWLTYRQGHGFDYWGQGTLVTVSS
binds | VHO v369 (VHH, Variable-heavy-only (VHO) single domain; also called TS00369) VHH: EVQLLESGGGLVQPGGSLRLSCAASGFTFSDYWMSWVRQAPGKGLEWVSNISGSGSSTYYADSVKGRFTISRDNSKNTLYLQMNSLRAEDTAVYYCAKTSQWLARERSSEFDYWGQGTLVTVSS
binds | VHO v341 (VHH, Variable-heavy-only (VHO) single domain; also called TS00341) VHH: EVQLLESGGGLVQPGGSLRLSCAASGFTFSTYWMSWVRQAPGKGLEWVSVINQDGSSTYYADSVKGRFTISRDNSKNTLYLQMNSLRAEDTAVYYCAKDELKSEWDFDYWGQGTLVTVSS
binds | VHO v365 (VHH, Variable-heavy-only (VHO) single domain; also called TS00365) VHH: EVQLLESGGGLVQPGGSLRLSCAASGFTFSDYWMSWVRQAPGKGLEWVSNINQDGGSTYYADSVKGRFTISRDNSKNTLYLQMNSLRAEDTAVYYCAKTSDWLLVQFDYWGQGTLVTVSS
binds | VHO v351 (VHH, Variable-heavy-only (VHO) single domain; also called TS00351) VHH: EVQLLESGGGLVQPGGSLRLSCAASGFTFSSYAMSWVRQAPGKGLEWVSNISGSGSSTYYADSVKGRFTISRDNSKNTLYLQMNSLRAEDTAVYYCAKESQHSPGWGFDYWGQGTLVTVSS
binds | VHO v379 (VHH, Variable-heavy-only (VHO) single domain; also called TS00379) VHH: EVQLLESGGGLVQPGGSLRLSCAASGFTFSSYGMSWVRQAPGKGLEWVSNINQSGSSTYYADSVKGRFTISRDNSKNTLYLQMNSLRAEDTAVYYCAKHSHWAHRVLQSFDYWGQGTLVTVSS
binds | VHO v377 (VHH, VHO single domain; also called TS00377) VHH: EVQLLESGGGLVQPGGSLRLSCAASGFTFSDYWMSWVRQAPGKGLEWVSAISGDGSSTYYADSVKGRFTISRDNSKNTLYLQMNSLRAEDTAVYYCAKEDWRPGFDYWGQGTLVTVSS

Each binder was assayed against T2, recombinant human CDH17 (R&D systems) (assay: ELISA, plate coated with recombinant human CDH17).
Experimental: ELISA-based binding assay was employed to evaluate the binding to CDH17 by anti-CDH17 antibodies. In this assay, 100 μL of […] recombinant human CDH17 (R&D systems) was coated on an ELISA plate. Increasing concentrations of masked and reference mAbs were applied on the plate and their binding to the recombinant human proteins were detected by HRP-conjugated anti-human secondary antibody. […] The expressed anti-CDH17 mAbs had potent binding to CDH17. The anti-CDH17 were tested for binding to AGS gastric cancer cells and AsPC-1 pancreatic cancer cells.

binding result | Binder
binds | CDH17 v1 (antibody, human IgG1, V domains shown, described as human IgG1 monoclonal antibody; also called anti-CDH17 v1) VH: EVQLQQSVAELVKPGASVKMSCKVSGYTLTDHTIHWMKQRPEQGLEWIGYIYPRDGITGYNEKFKGKATLTADTSSSTAYMQLNSLTSEDSAVYFCARWGYSYRNYAYYYDYWGQGTTLTVSS VL: DIVMSQSPSSLAVSVGEKVTMSCKSSQSLLHSSNQKNYLAWYQQKPGQSPKVLIYWASTRESGVPDRFTGSGSGTDFTLTITSVKSEDLAVYYCQQYYSYPWTFGGGTRLEIK
